# Assay results published in PMC10144703, “Molecular Mechanism of Sirtuin 1 Inhibition by Human Immunodeficiency Virus 1 Tat Protein” (Life, 2023).
# Biological target: T1, human Sirt3 (Homo sapiens, UniProt Q9NTG7)
# T1 construct: Sirt3-(93-399) in a modified pET-32a; Trx-His6 (cleaved yes); made in house; host or cells: E. coli CodonPlus(DE3)
# T1 sequence (Q9NTG7 93-399): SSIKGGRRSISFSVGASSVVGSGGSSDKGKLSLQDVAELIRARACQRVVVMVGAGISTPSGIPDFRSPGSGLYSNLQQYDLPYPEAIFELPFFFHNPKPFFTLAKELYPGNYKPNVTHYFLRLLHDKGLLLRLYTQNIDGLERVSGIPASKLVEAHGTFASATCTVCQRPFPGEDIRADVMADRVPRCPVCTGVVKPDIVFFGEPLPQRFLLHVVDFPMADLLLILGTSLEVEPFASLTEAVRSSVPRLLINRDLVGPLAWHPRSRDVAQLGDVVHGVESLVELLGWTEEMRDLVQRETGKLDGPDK
# Assay: Continuous coupled enzymatic assay, Sirt3
# Type: biochemical
# Conditions: 65 μM Tat-Cys^−, acetylated peptide at substrate Km, n = 3
# Excerpt: A human mini-Sirt1 construct (aa 183-505-(GGGS)2-641-665), as described in [27], was generated in a modified pET-19b with a TEV cleavage site. This construct and human full-length Sirt1 (fl-Sirt1) in pET-15b, Sirt1-(183-664) and Sirt1-(214-664) in pET-15b, mini-Sirt1-∆SBD (aa 214-505-(GGGS)2-641-665) and mini-Sirt1-∆ESA (aa 183–505) in a modified pET-19b with TEV cleavage site, Sirt2-(43-356) in a modified pET-19b with a His6-Sumo tag, Sirt3-(93-399) in a modified pET-32a with Trx-His6 tag and TEV cleavage site, hSirt3-(118-399) in pVFT3S (Sungkyunkwan University, Seoul, Republic of Korea) with His6-Trx tag and TEV cleavage site, Sirt5-(34-302) in pET-151/D-TOPO, and Sirt6-(1-355) in pQE80L.1 were purified as described. […]
# Continuous coupled enzymatic sirtuin activity assays were conducted as described. […] Reactions were monitored for 1 h at room temperature by absorption spectroscopy at 340 nm in a UV/vis plate reader (BioTek). The slope for the linear range (typically 5–25 min) was evaluated after background correction with measurements without NAD^+. Additional control reactions were run by either omitting enzyme or omitting peptide substrate to ensure that the signal measured reflects the NAD+-dependent deacetylation activity of the sirtuin.
molecule,measurement,value
"Tat-Cys^−: Recombinant 86-residue HIV1 Zaire 2 Tat with C22S, C25A, C27A, C30S, C31A, C34S, and C37A (protein) MDPVDPNIEPWNHPGSQPKTASNRAHAKKSAYHSQVAFITKGLGISYGRKKRRQRRRPSQGGQTHQDPIPKQPSSQPRGDPTGPKE","inhibitory effect on Sirt3, continuous assay",pronounced inhibitory effects
